Measurements reported in PMC11685663.

Target: recombinant H5 hemagglutinin (rH5) ectodomain from A/Texas/37/2024 (H5N1, clade 2.3.4.4b) (influenza A virus A/Texas/37/2024 (H5N1))
Experiment: cryo-EM structure

recombinant H5 hemagglutinin (rH5) ectodomain from A/Texas/37/2024 (H5N1, clade 2.3.4.4b) (natural protein)
stoichiometry N: 3
